Here are results for 10 molecules from US20260146097A1.

Experiment [1] concerns the target IL2Rs (IL2Rgamma/IL2Rbeta) on preactivated human PBMCs / CD8+ T cells (human) (UniProt P14784). Kind of experiment: cell-based or functional assay.
The target of experiment [2] is T1, human IL2Rbeta-Avi protein (R&D Systems) (human) (UniProt P14784).
T1 sequence (looked up): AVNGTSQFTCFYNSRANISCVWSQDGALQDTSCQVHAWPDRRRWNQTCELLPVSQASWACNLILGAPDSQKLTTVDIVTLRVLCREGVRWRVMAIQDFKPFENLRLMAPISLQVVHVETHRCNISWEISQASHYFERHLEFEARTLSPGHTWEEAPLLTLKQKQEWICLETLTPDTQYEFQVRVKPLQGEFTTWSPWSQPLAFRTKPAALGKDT
The experiment can be described thus: ELISA: variant captured by anti-human IgG-Fc, human IL2Rbeta-Avi, streptavidin-HRP. Background: In an ELISA, binding on a coated surface is turned into a signal by an enzyme label.

Substitutions are numbered along the chain they refer to. Names may count otherwise.

Consider IgG Control (antibody), for which, in experiment [1], the pSTAT5 EMAX (Mean Fluorescence Intensity) (Mean Fluorescence Intensity) is 25000.

B1: Wild-type anti-IL2Rbeta VH in the multi-specific format (anti-LAG3 and a single anti-IL2Rgamma/anti-IL2Rbeta unit) (protein, part only; not given: rest of multi-specific format, part only)
VH: EVQLVQSGAEVKKPGACVKISCKVSGYTFTDYYMHWVQRAPGKGLEWIGLVDPEDGETIYAEKFQGRVTITADTSTDTAYMELCSLRSEDTAVYYCATDFVKLDFSLSFQHWGQGTLVTVSS
B1 showed an EC50 in experiment [2] of 0.65 µg/mL.

B2: Anti-IL2Rbeta VH modification D31S in the multi-specific format (protein, part only; not given: Rest of multi-specific format, not shown: another chain or arm of the molecule; a dimerising Fc or GST; small tags and cut ends)
VH: B1 VH with D31S
In turn, B2 yielded an EC50 in experiment [2] of 0.21 µg/mL.

B3: Anti-IL2Rbeta VH modification Y32F in the multi-specific format (protein, part only; not given: Rest of multi-specific format, not shown: another chain or arm of the molecule; a dimerising Fc or GST; large carriers; small tags and cut ends)
VH: B1 VH with Y32F
For the molecule B3, the EC50 in experiment [2] was determined as 0.24 µg/mL.

B4: Anti-IL2Rbeta VH modification E53I in the multi-specific format (protein, part only; not given: Rest of multi-specific format, not shown: another chain or arm of the molecule; a dimerising Fc or GST; large carriers; small tags and cut ends)
VH: B1 VH with E54I
As for B4, the half-maximal effective concentration (EC50) in experiment [2] stood at 0.3 µg/mL.

B5: Anti-IL2Rbeta VH modification D31K in the multi-specific format (protein, part only; not given: Rest of multi-specific format, not shown: another chain or arm of the molecule; a dimerising Fc or GST; small tags and cut ends)
VH: B1 VH with D31K
B5 came in with an EC50 in experiment [2] of 0.4 µg/mL.

B6: Anti-IL2Rbeta VH modification D31Y in the multi-specific format (protein, part only; not given: Rest of multi-specific format, not shown: another chain or arm of the molecule; a dimerising Fc or GST; small tags and cut ends)
VH: B1 VH with D31Y
Turning to B6, in experiment [2], the EC50 came out at 0.24 µg/mL.

B7: Anti-IL2Rbeta VH modification Y33F in the multi-specific format (protein, part only; not given: Rest of multi-specific format, not shown: another chain or arm of the molecule; a dimerising Fc or GST; large carriers; small tags and cut ends)
VH: B1 VH with Y33F
B7 came in with a half-maximal effective concentration (EC50) in experiment [2] of 0.24 µg/mL.

B8: Anti-IL2Rbeta VH modification D31R in the multi-specific format (protein, part only; not given: Rest of multi-specific format, not shown: another chain or arm of the molecule; a dimerising Fc or GST; small tags and cut ends)
VH: B1 VH with D31R
In experiment [2], B8 returned an EC50 of 0.13 µg/mL.

B9: Anti-IL2Rbeta VH modification E53S in the multi-specific format (protein, part only; not given: Rest of multi-specific format, not shown: another chain or arm of the molecule; a dimerising Fc or GST; large carriers; small tags and cut ends)
VH: B1 VH with E54S
For the molecule B9, the EC50 in experiment [2] came out at 0.3 µg/mL.

The EC50 is the concentration giving half of the maximal effect.
